Measured values as given in US20130071921A1 (Pfizer, published 2013).
Positions count from the first letter of the chain named.

T1: Recombinant human Dkk-1 (R&D Systems cat no. 1096-DK/CF), 10xHis tag at the C terminal (human, UniProt O94907 32-266)
T1 construct: the actual N-terminus of the purified protein is marked in bold italic after residue 30, but the mark is an image lost in the text; also called rhuDkk-1; hDkk-1
T1 sequence: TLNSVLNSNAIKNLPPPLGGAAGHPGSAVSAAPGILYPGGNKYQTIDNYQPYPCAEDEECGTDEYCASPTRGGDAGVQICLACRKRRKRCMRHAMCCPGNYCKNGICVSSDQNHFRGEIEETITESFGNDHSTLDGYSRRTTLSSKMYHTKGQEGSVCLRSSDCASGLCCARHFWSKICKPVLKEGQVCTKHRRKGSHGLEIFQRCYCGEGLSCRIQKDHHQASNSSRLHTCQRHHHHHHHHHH

B1: L2.1B5 (Fab, V domains shown)
VH: EVQLVESGGGLVQPGGSLRLSCAASGFTFSSYAISWVRQAPGKGLEWVASVSGWGDTYYPDSVKGRFTISRDNAKNSLYLQMNSLRAEDTAVYYCATSLENYAFDYWGQGTTVTVSS
VL: EIVLTQSPATLSLSPGERATLSCRASESVDDFGISFMNWYQQKPGQAPRLLIYAASKQGSGIPARFSGSGSGTDFTLTISSLEPEDFAVYYCQQSKEVPPTFGGGTKVEIK
notes: tested as Fab (E. coli lysate, screening mode); human kappa CL and IgG2 CH1 not included here
B2: L3.4E7 (Fab, V domains shown)
VH: B1 VH with E100Q
VL: B1 VL with M37I, A55G, S95L
notes: tested as Fab (E. coli lysate, screening mode); human kappa CL and IgG2 CH1 not included here; printed changes identical to L3.4H2
B3: 24m4 (Fab, V domains shown)
VH: B1 VH with W54G, D56R
VL: B1 VL with M37L
notes: as for B1
B4: L3.4H2 (Fab, V domains shown)
VH: B1 VH with E100Q
VL: B1 VL with M37I, A55G, S95L
notes: tested as Fab (E. coli lysate, screening mode); human kappa CL and IgG2 CH1 not included here; printed changes identical to L3.4E7
B5: L2.1E5 (Fab, V domains shown)
VH: B1 VH with W54G, D56R
VL: B1 VL
notes: tested as Fab (E. coli lysate, screening mode); human kappa CL and IgG2 CH1 not included here; printed changes identical to clone 24
B6: 24m5 (Fab, V domains shown)
VH: B1 VH with W54G, D56R
VL: B1 VL with A55G, S56T
notes: as for B1
B7: 2G9.33L (Fab, V domains shown)
VH: B1 VH with E100R
VL: B1 VL with M37I, A55G, S95L
notes: as for B1
B8: L3.1H3 (Fab, V domains shown)
VH: B1 VH with G55L, D56H
VL: B1 VL with M37I, A55G, S95L
notes: as for B1
B9: L3.1D7 (Fab, V domains shown)
VH: B1 VH with G55F, D56R, E100R
VL: B1 VL with M37I, A55G, S95L
notes: as for B1
B10: L2.P4.H3 (Fab, V domains shown)
VH: B1 VH with G55L
VL: B1 VL
notes: as for B1
B11: L3.2H8 (Fab, V domains shown)
VH: B1 VH with G55L, D56G, E100Q
VL: B1 VL with M37I, A55G, S95L
notes: as for B1
B12: L3.1A3 (Fab, V domains shown)
VH: B1 VH with G55F, D56H, E100R
VL: B1 VL with M37I, A55G, S95L
notes: as for B1
B13: L3.4H5 (Fab, V domains shown)
VH: B1 VH with T97S, E100D
VL: B1 VL with M37I, A55G, S95L
notes: as for B1
B14: L2.1G8 (Fab, V domains shown)
VH: B1 VH with G55F
VL: B1 VL
notes: as for B1
B15: 24 (Fab, V domains shown)
VH: B1 VH with W54G, D56R
VL: B1 VL
notes: positive control Fab of the screening assays; human kappa CL and IgG2 CH1 not included here; printed changes identical to L2.1E5; also called clone 24; Clone 24 Fab
B16: L2.4B10 (Fab, V domains shown)
VH: B1 VH with G55Y
VL: B1 VL
notes: as for B1
B17: L2.P4.B5 (Fab, V domains shown)
VH: B1 VH with L99Y
VL: B1 VL
notes: as for B1
B18: 1F10.33L (Fab, V domains shown)
VH: B1 VH with W54G, G55F, D56Q, E100D
VL: B1 VL with M37I, A55G, S95L
notes: human kappa CL and IgG2 CH1 not included here
B19: L2.P4.C10 (Fab, V domains shown)
VH: B1 VH with E100K
VL: B1 VL
notes: as for B1
B20: L2.1G4 (Fab, V domains shown)
VH: B1 VH with G55F, Y106K
VL: B1 VL
notes: as for B1
B21: L3.4E10 (Fab, V domains shown)
VH: B1 VH with D56H, E100Q
VL: B1 VL with M37I, A55G, S95L
notes: as for B1
B22: L2.1B11 (Fab, V domains shown)
VH: B1 VH with G55F, E100R
VL: B1 VL
notes: as for B1
B23: L2.1F11 (Fab, V domains shown)
VH: B1 VH with G55L, E100Q
VL: B1 VL
notes: as for B1
B24: 2H10.33L (Fab, V domains shown)
VH: B1 VH with G55F, E100Q
VL: B1 VL with M37I, A55G, S95L
notes: as for B1
B25: L3.4E6 (Fab, V domains shown)
VH: B1 VH with W54G, G55L, D56G, E100R
VL: B1 VL with M37I, A55G, S95L
notes: as for B1
B26: 24m6 (Fab, V domains shown)
VH: B1 VH with W54G, D56R
VL: B1 VL with A55G
notes: as for B1
B27: L2.P4.E7 (Fab, V domains shown)
VH: B1 VH with E100R
VL: B1 VL
notes: as for B1
B28: L2.1D12 (Fab, V domains shown)
VH: B1 VH with G55F, E100Q
VL: B1 VL
notes: as for B1
B29: L3.2H10 (Fab, V domains shown)
VH: B1 VH with G55L, D56G, E100K
VL: B1 VL with M37I, A55G, S95L
notes: as for B1
B30: L3.1B12 (Fab, V domains shown)
VH: B1 VH with G55F, D56G
VL: B1 VL with M37I, A55G, S95L
notes: as for B1
B31: L2.4G10 (Fab, V domains shown)
VH: B1 VH with G55L, E100R
VL: B1 VL
notes: as for B1
B32: L2.4D11 (Fab, V domains shown)
VH: B1 VH with G55M
VL: B1 VL
notes: as for B1

molecular target: T1, Recombinant human Dkk-1 (R&D Systems …); assay: theoretical: koff / estimated kon 1e6 1/Ms (SPR screening 37C)
Description: (§1) For screening assays to determine binding and dissociation rates of huMabJC18 variants to human Dkk1, either BIAcore or ProteOn XPR36 (BioRad, Inc.) systems were used. For the BIAcore assay, biotinylated-human Dkk1 was captured on SA (streptavidin) BIAcore chips according to the supplier's instructions. Biotinylated-human Dkk-1 protein was diluted into HBS-EP, and injected over the chip at a concentration of 5 μg/mL. Flow times across the individual chip channels were selected to achieve an antigen density of approximately 500-600 response units (RU). HBS-EP buffer was used as running buffer. Filtered recombinant E.coli cell lysates were injected at high temperature (37° C.) for 1 min at 30 ul/min, allowing a 1-5 min dissociation phase. Surfaces were regenerated with 8 mM NaOH+8% ethanol. A positive control Fab (clone 24) was injected twice at the start of the experiment, and again at the end of the assay to assess reproducibility.
For the ProteOn assay, biotinylated human Dkk-1 was injected for 1 min at serial fold dilutions empirically determined to yield different levels of immobilization (150-3000 RU) on five channels of a ProteOn NLC Neutravidin sensor chip. The sixth channel was left unmodified to serve as a reference surface. Recombinant Fabs in filtered E. coli lysates were injected at high temperature (37° C.) for 50 sec at 20 μl/min. Running buffer consisted of PBS+1 mg/ml BSA+0.005% Tween-20. The ProteOn is configured such that each injection flows over each of the five Dkk-1 channels as well as the reference channel, and six Fab samples can be injected simultaneously. Fab dissociation from the Dkk-1 surface was monitored for 20 min. The chip surface was regenerated with a 30-sec injection of 8% EtOH, 8 mM NaOH. Clone 24 Fab was used as control. Level of binding during association, and rate of dissociation for each clone was very consistent between different ligand channels. […]

Kd [nM]	Binder
4.42	B1
0.276	B2
11.8	B3
0.048	B4
5.7	B5
8.74	B6
0.283	B7
1.15	B8
0.164	B9
2.74	B10
0.555	B11
0.184	B12
0.808	B13
2.55	B14
11.4	B15
3.45	B16

Kd [nM]	Binder
5.32	B17
0.09	B18
4.31	B19
3.12	B20
0.533	B21
2.07	B22
2.12	B23
0.148	B24
0.99	B25
9.14	B26
5.19	B27
2.78	B28
0.569	B29
0.21	B30
2.76	B31
3.26	B32

molecular target: T1, Recombinant human Dkk-1 (R&D Systems …); assay: SPR screening 37C (BIAcore/ProteOn), Fab lysate over biotinylated human Dkk-1
Description: as §1
For the ProteOn assay, biotinylated human Dkk-1 was injected for 1 min at serial fold dilutions empirically determined to yield different levels of immobilization (150-3000 RU) on five channels of a ProteOn NLC Neutravidin sensor chip. The sixth channel was left unmodified to serve as a reference surface. Recombinant Fabs in filtered E. coli lysates were injected at high temperature (37° C.) for 50 sec at 20 μl/min. Running buffer consisted of PBS+1 mg/ml BSA+0.005% Tween-20. The ProteOn is configured such that each injection flows over each of the five Dkk-1 channels as well as the reference channel, and six Fab samples can be injected simultaneously. Fab dissociation from the Dkk-1 surface was monitored for 20 min. The chip surface was regenerated with a 30-sec injection of 8% EtOH, 8 mM NaOH. Clone 24 Fab was used as control. Level of binding during association, and rate of dissociation for each clone was very consistent between different ligand channels.

koff [s⁻¹]	Binder
0.00442	B1
0.000276	B2
0.0118	B3
4.8e-05	B4
0.0057	B5
0.00874	B6
0.000283	B7
0.00115	B8
0.000164	B9
0.00274	B10
0.000555	B11
0.00018	B12
0.000808	B13
0.00255	B14
0.0114	B15
0.00345	B16

koff [s⁻¹]	Binder
0.00532	B17
8.99e-05	B18
0.00431	B19
0.00312	B20
0.000533	B21
0.00207	B22
0.00212	B23
0.000148	B24
0.00099	B25
0.00914	B26
0.00519	B27
0.00278	B28
0.000569	B29
0.00021	B30
0.00276	B31
0.00326	B32
